Measured values: US20250027068

What follows are proteins tested against pooled human IgG (human IgG1, 2, 3 and 4).

Row | Protein | Enzyme Activity Endpoint Assay (purified): Fab′2 | Enzyme Activity Endpoint Assay (purified): Fc | Enzyme Activity Endpoint Assay (purified): IgG | Enzyme Activity Endpoint Assay (purified): scIgG | Enzyme Activity Endpoint Assay: Fab′2 | Enzyme Activity Endpoint Assay: Fc | Enzyme Activity Endpoint Assay: IgG | Enzyme Activity Endpoint Assay: scIgG
1 | PRT-381 (protein) MVTSVWTKGVTPPTNFTYGEDVLHAPYVANQGWYDITKTFNGKDDLLCGAATAGNMLHWWFDQNKEQIENYLKKHPEKQKINFNGEQMFDVKEAIDTKDSQLDSKLFEYFKEKAFPYLSTKHLGVFPDHVIDMFINGYRLSLTNHGPTPVKRGSKDPRGGIFDAVFTRGDQSKLLTNRHDFKEKTLKEISDLIKQELTEGKALGISHTYANVRINHVINLWGADFDAEGNLEAIYVTDSDSNPSIGMKKYFVGVNSNGKVAISAKEIEEDNIGAQVLGLFTLSTGQDIWNQTN | 486 ng/µL | 334 ng/µL | 0 ng/µL | 194 ng/µL |  |  |  | 
2 | PRT-389 (protein) MVTSVWTKGVTPPTNFTYGEDVLHAPYVANQGWYDITKTFNGKDDLLCGAATAGNMLHWWFDQNKEQIENYLKKHPEKQKINFKGEQMFDVKEAIDTKDSQLDSKLFEYFKEKAFPYLSTKHLGVFPDHVIDMFINGYRLSLTNHGPTPVKRGSKDPRGGIFDAVFTRGDQSKLLTNRHDFKEKTLKEISDLIKQELTEGKALGISHTYANVRINHVINLWGADFDAEGNLEAIYVTDSDSNASIGMKKYFVGVNSNGKVAISAKEIEEDNIGAQVLGLFTLSTGQDIWNQTN | 479 ng/µL | 340 ng/µL | 32 ng/µL | 219 ng/µL |  |  |  | 
3 | PRT-397 (protein) MVTSVWTKGVTPPADFTQGEDVFHAPYVANQGWYDITKTFNGKDDLLCGAATAGNMLHWWFDQNKEYIEAYLKKHPEKQKIMFGDQELLDVRKAINTKGSQKNSELFNYFRDKAFPNLSARRLGVMPDLVLDMFINGYYLNVTKTQTTDVNRTYQEKDKRGGIFDAVFTRGDQSKLLTSRHDFKEKGLKEISDLIKQELTEGKALGLSHTYANVGINHVINLWGADFDSDGNLKAIYVTDSDSNASIGMKKYFVGVNSAGKVAISAKEIKEDNIGAQVLGLFTLSTGQDIWNQTN | 102 ng/µL | 243 ng/µL | 93 ng/µL | 498 ng/µL |  |  |  | 
4 | PRT-405 (protein) MVTSVWTKGVTPPADFTQGEDVFHAPYVANQGWYDITKTFNGKDDLLCGAATAGNMLHWWFDQNKEYIEAYLKKHPEKQKIMFGDQELLDVRKAINTKGSQKNSELFNYFRDKAFPNLSARRLGVMPDLVLDMFINGYYLNVTKTQTTDVNRTYQEKDKRGGIFDAVFTRGDQSKLLTSRHDFKEKGLKEISDLIKQELTEGKALGLSHTYANVRINHVINLWGADFDSDGNLKAIYVTDSDSNASIGMKKYGVGVNSAGKVAISAKEIKEDNIGAQVLGLFTLSTGQDIWNQTN | 86 ng/µL | 218 ng/µL | 406 ng/µL | 558 ng/µL |  |  |  | 
5 | PRT-413 (protein) MTITSVWTKGVTPPTPEDFRENNEDVLHAPYVANQGWYDITKTFDGKDNLLCGAATAGNMLHWWFDQNKEEIERYLKKHPEKQKIIFNNQELFDVKAAIDTKDSQTNSKLFNYFRDKAFPNLSARQLGVMPDLVLDMFINGYYLNLGKTQSTDVNRPYQDKDKRGGIFDAVFTRGDQTTLLTARHDLKNKGLNEISDLIKQELTEGKALALSHTYANVRINHVINLWGADFDAEGNLIAIYVTDSDANASIGMKKYFVGVNANGKVAISAKKIEGDNIGAQVLGLFTLSTGQDIWQKLS | 485 ng/µL | 347 ng/µL | 14 ng/µL | 152 ng/µL |  |  |  | 
6 | PRT-421 (protein) MTITSVWTKGVTPPTPEDFRYNNEDVLHAPYVANQGWYDITKTFDGKDNLLCGAATAGNMLHWWFDQNKEEIERYLKKHPEKQKIIFNNQELFDVKAAIDTKDSQTNSKLFDYFRDKAFPNLSARQLGVMPDLVLDMFINGYYLNLGKTQSTDVNRPYQDKDKRGGIFDAVFTRGDQTTLLTARHDLKNKGLNEISDLIKQELTEGKALALSHTYANVRINHVINLWGADFDAEGNLIAIYVTDSDANASIGMKKYFVGVNANGKVAISAKKIEGDNIGAQVLGLFTLSTGQDIWQKLS | 612 ng/µL | 340 ng/µL | 71 ng/µL | 0 ng/µL |  |  |  | 
7 | PRT-429 (protein) MTITSVWTKGVTPPTPEDFRYNNEDVLHAPYVANQGWYDITKTFDGKDNLLCGAATAGNMLHWWFDQNKEEIERYLKKHPEKQKIIFNNQELFDVKAAIDTKDSQTNSKLFNYFRDKAFPNLSARQLGVMPDLVLDMFINGYYLNLGKTQSTDVNRPYQDKDKRGGIFDAVFTRGDQTTLLTARHDLKNKGLNEISDLIKQELTEGKALALSHTYANVRINHVINLWGADFDAEGNLIAIYVTDSDARASIGMKKYFVGVNANGKVAISAKKIEGDNIGAQVLGLFTLSTGQDIWQKLS | 528 ng/µL | 348 ng/µL | 57 ng/µL | 171 ng/µL |  |  |  | 
8 | PRT-382 (protein) MVTSVWTKGVTPPTNFTYGEDVLHAPYVANQGWYDITKTFNGKDDLLCGAATAGNMLHWWFDQNKEQIENYLKKHPEKQKINFNGEQMFDVKEAIDTKDSQLDSKLFEYFKEKAFPYLSTKHLGVFPDHVIDMFINGYRLSLTNHGPTPVKRGSKDPRGGIFDAVFTRGDQSKLLTNRHDFKEKTLKEISDLIKQELTEGKALGISHTYANVRINHVINLWGADFDAEGNLEAIYVTDSDSNASIGMKKYVVGVNSNGKVAISAKEIEEDNIGAQVLGLFTLSTGQDIWNQTN | 585 ng/µL | 380 ng/µL | 0 ng/µL | 226 ng/µL |  |  |  | 
9 | PRT-390 (protein) MVTSVWTKGVTPPTNFTYGEDVLHAPYVANQGWYDITKTFNGKDDLLCGAATAGNMLHWWFDQNKEQIENYLKKHPEKQKINFNGEQLFDVKEAIDTKDSQLDSKLFEYFKEKAFPYLSTKHLGVFPDHVIDMFINGYRLSLTNHGPTPVKRGSKDPRGGIFDAVFTRGDQSKLLTNRHDFKEKTLKEISDLIKQELTEGKALGISHTYANVRINHVINLWGADFDAEGNLEAIYVTDSDSNASIGMKKYFVGVNSNGKVAISAKEIEEDNIGAQVLGLFTLSTGQDIWNQTN | 578 ng/µL | 371 ng/µL | 0 ng/µL | 227 ng/µL | 578 ng/µL | 371 ng/µL | 0 ng/µL | 227 ng/µL
10 | PRT-398 (protein) MVTSVWTKGVTPPADFTQGEDVFHAPYVANQGWYDITKTFNGKDDLLCGAATAGNMLHWWFDQNKEYIEAYLKKHPEKQKIMFGDQELLDVRKAINTKGSQKNSELFNYFRDKAFPNLSARRLGVMPDLVLDMFINGYYLNVTKTQTTDVNRTYQEKDKRGGIFDAVFTRGDQSKLLTSRHDFKEKGLKEISDLIKQELTEGKALGLSHTYANVRINHVINLWGADFDSDGNLKAIYVTDSDSNASIGMKKYDVGVNSAGKVAISAKEIKEDNIGAQVLGLFTLSTGQDIWNQTN | 555 ng/µL | 370 ng/µL | 0 ng/µL | 196 ng/µL | 555 ng/µL | 370 ng/µL | 0 ng/µL | 196 ng/µL
11 | PRT-406 (protein) MVTSVWTKGVTPPADFTQGEDVFHAPYVANQGWYDITKTFNRKDDLLCGAATAGNMLHWWFDQNKEYIEAYLKKHPEKQKIMFGDQELLDVRKAINTKGSQKNSELFNYFRDKAFPNLSARRLGVMPDLVLDMFINGYYLNVTKTQTTDVNRTYQEKDKRGGIFDAVFTRGDQSKLLTSRHDFKEKGLKEISDLIKQELTEGKALGLSHTYANVRINHVINLWGADFDSDGNLKAIYVTDSDSNASIGMKKYFVGVNSAGKVAISAKEIKEDNIGAQVLGLFTLSTGQDIWNQTN | 435 ng/µL | 299 ng/µL | 135 ng/µL | 108 ng/µL | 435 ng/µL | 299 ng/µL | 135 ng/µL | 108 ng/µL
12 | PRT-414 (protein) MTITSVWTKGVTPPTPEDFRYNNEDVLHAPYVANQGWYDITKTFDGKDNLLCGAATAGNMLHWWFDQNKEEIERYLKKHPEKQKIIFGNQELFDVKAAIDTKDSQTNSKLFNYFRDKAFPNLSARQLGVMPDLVLDMFINGYYLNLGKTQSTDVNRPYQDKDKRGGIFDAVFTRGDQTTLLTARHDLKNKGLNEISDLIKQELTEGKALALSHTYANVRINHVINLWGADFDAEGNLIAIYVTDSDANASIGMKKYFVGVNANGKVAISAKKIEGDNIGAQVLGLFTLSTGQDIWQKLS | 496 ng/µL | 341 ng/µL | 77 ng/µL | 129 ng/µL | 496 ng/µL | 341 ng/µL | 77 ng/µL | 129 ng/µL
13 | PRT-422 (protein) MTITSVWTKGVTPPTPEDFRYNNEDVLHAPYVANQGWYDITKTFDGKDNLLCGAATAGNMLHWWFDQNKEEIERYLKKHPEKQKIIFNNQELFDVKAAIDTKDSQTNSKLFNYFRDKAFPNLSARQLGVMPDLVLDMFINGYYLNLGKTQSTDVNRPYQDKDKRGGIFDAVFTRGDQTTLLTARHDLKNKGLNEISDLIKQELTEGKALALSHTYANVRINHVINLWGADFDAEGNLIAIYVTDSDANPSIGMKKYFVGVNANGKVAISAKKIEGDNIGAQVLGLFTLSTGQDIWQKLS | 494 ng/µL | 348 ng/µL | 69 ng/µL | 136 ng/µL | 494 ng/µL | 348 ng/µL | 69 ng/µL | 136 ng/µL
